Laboratory results from patent EP4682166A1 (Guangzhou Enmai Biotechnology Co., Ltd, dated 2026).
Blank lines part the entries; values can stand above or below the binder they belong to.

How the values were obtained:
[1] = target: T1, human NMI (N-myc Interacting protein), recombinant protein (human, UniProt Q13287 1-307, limits assumed); assay: sandwich ELISA; detection 98G10-1-biotin; hNMI 11.111 ng/mL
T1 construct: Gene ID: 9111; also called hNMI; antigen
T1 sequence (looked up): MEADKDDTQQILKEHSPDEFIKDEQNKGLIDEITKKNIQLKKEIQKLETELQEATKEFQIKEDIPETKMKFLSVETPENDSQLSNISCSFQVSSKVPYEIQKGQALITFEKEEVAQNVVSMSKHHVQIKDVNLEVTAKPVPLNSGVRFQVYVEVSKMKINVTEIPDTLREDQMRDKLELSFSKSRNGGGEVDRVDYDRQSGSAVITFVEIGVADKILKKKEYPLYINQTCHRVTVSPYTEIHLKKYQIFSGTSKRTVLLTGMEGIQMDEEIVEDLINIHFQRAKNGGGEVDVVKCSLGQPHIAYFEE

[2] = target: T1, human NMI (N-myc Interacting protein), …; assay: sandwich ELISA; detection 94C4-1-biotin 1µg/mL; hNMI 3,125.000 pg/mL
[3] = target: T1, human NMI (N-myc Interacting protein), …; assay: sandwich ELISA; detection 94C4-1-biotin 1µg/mL; hNMI 48.828 pg/mL
[4] = target: T1, human NMI (N-myc Interacting protein), …; assay: sandwich ELISA; detection 94C4-1-biotin 0.5µg/mL; hNMI 781.250 pg/mL
[5] = target: T1, human NMI (N-myc Interacting protein), …; assay: sandwich ELISA; detection 94C4-1-biotin 1µg/mL; hNMI 195.313 pg/mL
[6] = target: T1, human NMI (N-myc Interacting protein), …; assay: sandwich ELISA; detection 39B4-1-biotin; hNMI 3.704 ng/mL
[7] = target: T1, human NMI (N-myc Interacting protein), …; assay: sandwich ELISA; detection 39B4-1-biotin; hNMI 33.333 ng/mL
[8] = target: T1, human NMI (N-myc Interacting protein), …; assay: sandwich ELISA; detection 94C4-1-biotin 0.5µg/mL; hNMI 12,500.000 pg/mL
[9] = target: T1, human NMI (N-myc Interacting protein), …; assay: sandwich ELISA; detection 94C4-1-biotin 0.5µg/mL; hNMI 1,562.500 pg/mL
[10] = target: T1, human NMI (N-myc Interacting protein), …; assay: sandwich ELISA; detection 94C4-1-biotin 1µg/mL; hNMI 1,562.500 pg/mL
[11] = target: T1, human NMI (N-myc Interacting protein), …; assay: sandwich ELISA; detection 94C4-1-biotin 0.5µg/mL; hNMI 6,250.000 pg/mL
[12] = target: T1, human NMI (N-myc Interacting protein), …; assay: sandwich ELISA; detection 39B4-1-biotin; hNMI 1.235 ng/mL
[13] = target: T1, human NMI (N-myc Interacting protein), …; assay: sandwich ELISA; detection 94C4-1-biotin 1µg/mL; hNMI 25,000.000 pg/mL
[14] = target: T1, human NMI (N-myc Interacting protein), …; assay: sandwich ELISA; detection 98G10-1-biotin; hNMI 3.704 ng/mL
[15] = target: T1, human NMI (N-myc Interacting protein), …; assay: sandwich ELISA; detection 94C4-1-biotin 0.5µg/mL; hNMI 195.313 pg/mL
[16] = target: T1, human NMI (N-myc Interacting protein), …; assay: sandwich ELISA; detection 94C4-1-biotin 1µg/mL; hNMI 6,250.000 pg/mL
[17] = target: T1, human NMI (N-myc Interacting protein), …; assay: sandwich ELISA; detection 94C4-1-biotin 0.5µg/mL; hNMI 48.828 pg/mL
[18] = target: T1, human NMI (N-myc Interacting protein), …; assay: sandwich ELISA; detection 94C4-1-biotin 0.5µg/mL; hNMI 50,000.000 pg/mL
[19] = target: T1, human NMI (N-myc Interacting protein), …; assay: sandwich ELISA; detection 98G10-1-biotin; hNMI 100.000 ng/mL
[20] = target: T1, human NMI (N-myc Interacting protein), …; assay: sandwich ELISA; detection 94C4-1-biotin 1µg/mL; hNMI 50,000.000 pg/mL
[21] = target: T1, human NMI (N-myc Interacting protein), …; assay: sandwich ELISA; detection 94C4-1-biotin 1µg/mL; hNMI 12,500.000 pg/mL
[22] = target: T1, human NMI (N-myc Interacting protein), …; assay: sandwich ELISA; detection 98G10-1-biotin; hNMI 1.235 ng/mL
[23] = target: T1, human NMI (N-myc Interacting protein), …; assay: sandwich ELISA; detection 94C4-1-biotin 1µg/mL; hNMI 97.656 pg/mL

OD450 [1]: 1.7 OD450
OD450 [2]: 0.958 OD450
OD450 [3]: 0.167 OD450
OD450 [4]: 0.396 OD450
OD450 [5]: 0.212 OD450
OD450 [6]: 0.785 OD450
OD450 [7]: 2.67 OD450
OD450 [8]: 2.32 OD450
OD450 [9]: 0.907 OD450
OD450 [10]: 0.568 OD450
OD450 [11]: 1.58 OD450
OD450 [12]: 0.35 OD450
OD450 [13]: 2.75 OD450
OD450 [14]: 0.777 OD450
OD450 [15]: 0.187 OD450
OD450 [16]: 1.47 OD450
OD450 [17]: 0.125 OD450
OD450 [18]: 3.33 OD450
OD450 [19]: 3.14 OD450
OD450 [20]: 3.1 OD450
OD450 [21]: 2.17 OD450
OD450 [22]: 0.362 OD450
OD450 [23]: 0.185 OD450
B1: monoclonal antibody 240B10-1 (antibody, V domains shown)
VH: QSLEESGGRLVTPGGSLTLTCTVSGIDLSSYTMGWVRQAPGKGLEYIGIISGGGRTYYASWAKGRFTISKTSSTTVDLKVTSLTTEDTATYFCARIYTLWGQGTLVTVSS
VL: QVLTQTLASVSAAVGGTVTINCQSSQSVYNNDYLAWFQQKSGQPPKQLIHSASKLASGVPSRFKGSGSGTQFTLTINDVQCDDAATYYCLGGYDCYSADCNVFGGGTEVVVK
notes: Rabbit monoclonal antibody

OD450 [1]: 1.38 OD450
OD450 [2]: 0.75 OD450
OD450 [3]: 0.139 OD450
OD450 [4]: 0.265 OD450
OD450 [5]: 0.173 OD450
OD450 [6]: 0.563 OD450
OD450 [7]: 2.43 OD450
OD450 [8]: 2.03 OD450
OD450 [9]: 0.42 OD450
OD450 [10]: 0.446 OD450
OD450 [11]: 1.29 OD450
OD450 [12]: 0.291 OD450
OD450 [13]: 2.79 OD450
OD450 [14]: 0.607 OD450
OD450 [15]: 0.134 OD450
OD450 [16]: 1.3 OD450
OD450 [17]: 0.102 OD450
OD450 [18]: 3.17 OD450
OD450 [19]: 3.02 OD450
OD450 [20]: 3.11 OD450
OD450 [21]: 2.03 OD450
OD450 [22]: 0.307 OD450
OD450 [23]: 0.15 OD450
B2: monoclonal antibody B-8 (antibody, V domains shown)
VH: QSLEESGGDLVKPGASLTLTCTASGFSFSSSYYMCWVRQAPGKGLEWIACIYAGSSGSTYYASWAKGRFTISKTSSTTVTLQMTSLTAADTATYFCAREYSYDDYGDFWGFNLWGPGTLVTVSS
VL: ALVMTQTPSSVSAAVGGTVTINCQASQNIYTNLAWYQQKPGQPPKLLIYGASNLESGVPSRFKGSGSGTEYTLTISDLECDDAATYYCQSSLYSRIADRANAFGGGTEVVVK
notes: Rabbit monoclonal antibody; also called B8-1
